B1: ZNF75A (parent)
chain: RTHTGEQPYTCSICRRNFSRRSSL
B2: ZER1 (parent)
chain: KEMARKVIEHCSNFKEENMDTSR

Variants of: B1
Test: protein stability index of a GFP-peptide fusion (GPS, HEK-293T) (PSI 1-6); higher = more stable
Conditions: c terminus: a fixed tail appended
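Further: lentivirally expressed fusions sorted by FACS into six bins by GFP to DsRed ratio, PSI derived from sequencing read proportions per bin multiplied by bin number.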

Protein stability index: each site, then its substitutions
N17: C 3.01; D 2.3; E 2.19; F 2.36; G 2.75; H 2.61; I 2.18; K 3.78; L 1.88; M 2.3; Q 3.17; R 2.99; S 2.74; T 3.5; V 2.62; W 2.46; Y 2.63
F18: A 3.47; C 2.57; D 2.76; E 1.74; G 2.38; H 2.83; I 2.28; K 2.6; L 2.21; M 2.49; N 2.29; P 2.14; Q 2.41; R 3.99; S 2.69; T 2.28; V 2.8; W 2.31; Y 2.61
S19: A 2.04; C 2.52; D 2.67; E 3.05; F 2.59; G 2.68; H 2.62; I 3.39; K 2.91; L 2.51; M 2.68; N 3.59; P 2.23; Q 2.72; R 2.99; T 3.25; V 2.4; W 2.21; Y 4.33
R20: A 2.67; C 2.4; D 2.46; E 1.83; F 1.72; G 3.5; H 2.53; I 1.73; K 2.12; L 2.56; M 2.15; N 2.19; P 2.36; Q 2.13; S 1.93; T 2.59; V 2.46; W 1.52; Y 2.24
R21: A 1.64; C 2.24; D 2.73; E 3.51; F 1.95; G 1.72; H 2.12; I 1.61; K 2.5; L 1.79; M 2.37; N 2.72; P 1.97; Q 3.09; S 1.58; T 2.84; V 1.95; W 2.69; Y 1.39
S22: A 2.86; C 2.64; D 2.3; E 2.77; F 2.81; G 2.51; H 3.5; I 2.77; K 3.16; L 2.91; M 2.25; N 2.65; P 2.76; Q 2.77; R 3.55; T 3.27; V 2.93; W 2.42; Y 2.99
S23: A 2.67; C 2.85; D 2.28; E 2.17; F 1.78; G 2.76; H 2.32; I 2.13; K 3.2; L 2.15; M 2.33; N 2.63; P 2.94; Q 2.04; R 2.9; T 2.72; V 2.5; W 2.34; Y 1.78
L24: A 3.02; C 2.63; D 2.71; E 4.02; F 2.65; G 3.1; H 3.23; I 2.79; K 4.06; M 2.96; N 2.56; P 3.82; Q 3.05; R 3.63; S 2.99; T 3.03; V 2.29; W 1.96; Y 3.03

Variants of: B2
Test: as above
Conditions: c terminus: native

Protein stability index of substitutions, site by site:
K1: A 3.7; C 2.6; D 4.45; E 4.81; F 2.86; G 4.12; H 4.3; I 2.95; L 2.73; M 2.75; N 4.24; P 3.36; Q 4.3; R 4.31; S 3.87; T 3.65; V 3.26; W 2.98; Y 3.31
E2: A 3.23; C 3.12; D 3.25; F 2.11; G 2.82; H 3.12; I 3.27; K 3.44; L 2.76; M 3.42; N 3.4; P 4.13; Q 3.53; R 3.57; S 2.74; T 3.39; V 3.52; W 2.01; Y 2.35
M3: A 4.49; C 4.08; D 4.86; E 4.53; F 1.72; G 4.37; H 4.05; I 3.29; K 4.36; L 3.52; N 4.14; P 4.78; Q 4.45; R 3.98; S 4.64; T 4.3; V 4.22; W 2.28; Y 3.29
A4: C 3.02; D 4.48; E 4.39; F 1.9; G 4.45; H 4.02; I 2.32; K 4.29; L 2.23; M 2.48; N 4.21; P 4.57; Q 4.21; R 4.15; S 4.13; T 3.94; V 2.59; Y 2.89
R5: A 4.4; C 3.76; D 4.9; E 4.72; F 2.48; G 3.65; H 3.72; I 2.83; K 4.15; L 2.74; M 3.13; N 4.01; P 4.74; Q 3.26; S 3.81; T 3.58; V 3.14; W 1.94; Y 2.68
K6: A 3.58; C 2.92; D 4.19; E 4.5; F 1.72; G 4.21; H 3.09; I 2.36; L 1.52; M 2.14; N 3.89; P 4.47; Q 3.73; R 2.63; S 2.96; T 2.74; V 2.52; W 2.71; Y 1.7
V7: A 4.87; C 4.55; D 5.26; E 5.27; F 3.83; G 5.13; H 1.52; I 1.59; K 4.88; L 1.92; M 2.44; N 5.1; P 4.46; Q 4.87; R 4.65; S 4.98; T 4.89; W 3.19; Y 2.09
I8: A 4.58; C 4.42; D 5.19; E 4.87; F 3.2; G 4.64; H 4.29; K 4.91; L 3.13; M 3.51; N 4.98; P 4.7; Q 4.67; R 4.33; S 3.92; T 4.4; V 4.35; W 1.86; Y 3.88
E9: A 4; C 4.04; D 4.11; F 2.13; G 4.29; H 3.92; I 3.03; K 4.37; L 2.64; M 2.96; N 4.29; P 4.58; Q 4.08; R 4.01; S 4.26; T 4.35; V 3.87; W 1.55; Y 3.16
H10: A 3.49; C 3.1; D 4.06; E 3.69; F 2.78; G 4.56; I 1.94; K 4.78; L 1.76; M 1.81; N 4.29; P 5.17; Q 3.83; R 3.59

Reference: the supplement of paper PMC10567573
